Results from PMC8472245.

What was measured:
[1] = biological target: FLAG-tagged KSHV ORF33; test: ELISA; conditions: parent: est. 0.68; read off a plot
[2] = biological target: FLAG-tagged KSHV ORF33 (Kaposi sarcoma-associated herpesvirus (KSHV))
FLAG-tagged KSHV ORF33 (Kaposi sarcoma-associated herpesvirus (KSHV)), sequence (F5HEF2 whole entry): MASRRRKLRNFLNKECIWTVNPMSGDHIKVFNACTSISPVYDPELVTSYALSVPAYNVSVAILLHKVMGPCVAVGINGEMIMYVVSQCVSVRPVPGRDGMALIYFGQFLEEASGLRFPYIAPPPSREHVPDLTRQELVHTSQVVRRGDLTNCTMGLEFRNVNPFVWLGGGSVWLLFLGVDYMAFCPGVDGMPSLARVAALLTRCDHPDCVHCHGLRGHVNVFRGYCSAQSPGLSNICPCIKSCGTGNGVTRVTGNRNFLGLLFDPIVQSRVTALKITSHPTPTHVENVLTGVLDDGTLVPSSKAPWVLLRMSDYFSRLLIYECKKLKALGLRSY

Row | Substance | response [1] | yield of extracellular KSHV genomes (qPCR) from induced iSLK.BAC16 cells treated with the peptide, up to 200 uM, 5 days; the peptide blocks ORF45-ORF33 [2]
1 | GST-tagged KSHV ORF45-C19 (from UniProt F5HDE4) C396A | 0.058 Absorbance | 
2 | GST-tagged KSHV ORF45-C19 (from UniProt F5HDE4) D407A | 0.69 Absorbance | 
3 | GST-tagged KSHV ORF45-C19 (from UniProt F5HDE4) G397A | 0.19 Absorbance | 
4 | GST-tagged KSHV ORF45-C19 (from UniProt F5HDE4) L395A | 0.21 Absorbance | 
5 | GST-tagged KSHV ORF45-C19 (from UniProt F5HDE4) L406A | 0.44 Absorbance | 
6 | GST-tagged KSHV ORF45-C19 (from UniProt F5HDE4) N402A | 0.69 Absorbance | 
7 | GST-tagged KSHV ORF45-C19 (from UniProt F5HDE4) P393A | 0.42 Absorbance | 
8 | GST-tagged KSHV ORF45-C19 (from UniProt F5HDE4) P394A | 0.058 Absorbance | 
9 | GST-tagged KSHV ORF45-C19 (from UniProt F5HDE4) P404A | 0.09 Absorbance | 
10 | GST-tagged KSHV ORF45-C19 (from UniProt F5HDE4) T392A | 0.085 Absorbance | 
11 | GST-tagged KSHV ORF45-C19 (from UniProt F5HDE4) W403A | 0.07 Absorbance | 
12 | GST-tagged KSHV ORF45-C19 (from UniProt F5HDE4) W405A | 0.058 Absorbance | 
13 | GST-tagged KSHV ORF45-C19 (from UniProt F5HDE4) Y401A | 0.058 Absorbance | 
14 | TAT-C19 peptide (from UniProt F5HDE4 389-407) |  | 34.1 µM
